Data from patent US20080138330.

Target: RTEF-1 (TEAD4) (Homo sapiens) (UniProt Q15561)
Assay: cell_activity

RTEF-1 (TEAD4) (Homo sapiens), sequence (Q15561 other isoform, or with tags, fused parts or gaps): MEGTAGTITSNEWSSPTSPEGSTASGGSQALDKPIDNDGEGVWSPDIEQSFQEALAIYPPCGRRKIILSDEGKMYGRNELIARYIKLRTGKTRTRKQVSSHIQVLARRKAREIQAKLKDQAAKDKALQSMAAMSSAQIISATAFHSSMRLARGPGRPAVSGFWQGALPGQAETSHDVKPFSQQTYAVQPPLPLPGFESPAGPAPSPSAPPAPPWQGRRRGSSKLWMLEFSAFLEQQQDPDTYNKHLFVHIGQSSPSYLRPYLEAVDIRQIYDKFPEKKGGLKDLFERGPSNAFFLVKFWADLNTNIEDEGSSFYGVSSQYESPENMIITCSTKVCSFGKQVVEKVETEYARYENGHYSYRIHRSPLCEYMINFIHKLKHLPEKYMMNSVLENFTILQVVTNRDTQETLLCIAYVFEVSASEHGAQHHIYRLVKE

Substance | activity (luciferase, +/-0.3, 2.7 +/-0.2 fold in hypoxia) [fold] | activity (luciferase in BAEC) [fold]
VEGF 0.35 promoter (-194/+157) | 2.2 | 
FGFR1 0.15 kb promoter (-48/+94) |  | > 3
